Assay results from article PMC7812809 (Proceedings of the National Academy of Sciences of the …, 2020).
Where a chain is given by its changes, count along the chain named. Numbers in names are those of the source.

Experiments:
Test in all cases: negative stain EM
[1] = target: LdcI E445A/D447A/R468E triple mutant (E. coli) (UniProt P0A9H3)
[2] = target: LdcI-Dendra2 T69A (C-terminal fluorescent protein fusion of LdcI) (E. coli | not stated) (UniProt P0A9H3)
[3] = target: LdcI R97E/R468E double mutant (E. coli) (UniProt P0A9H3)
[4] = target: Dendra2 T69A-LdcI (N-terminal fluorescent protein fusion of LdcI) (not stated | E. coli) (UniProt P0A9H3)
[5] = target: LdcI-mGeosM (C-terminal fluorescent protein fusion of LdcI) (E. coli | not stated) (UniProt P0A9H3)
negative stain EM = target: the molecule itself

Molecule “LdcI E445A/D447A/R468E triple mutant (from UniProt P0A9H3 1-715) (enzyme)” has a stoichiometry N [1] of 10.

In the case of “LdcI-Dendra2 T69A (C-terminal fluorescent protein fusion of LdcI) (from UniProt P0A9H3 1-715) (enzyme)”, the stoichiometry N [2] is reported as 10.

For “LdcI R97E/R468E double mutant (from UniProt P0A9H3 1-715) (enzyme)”, the stoichiometry N [3] was 10.

“Dendra2 T69A-LdcI (N-terminal fluorescent protein fusion of LdcI) (from UniProt P0A9H3 1-715) (enzyme)” gave a stoichiometry N [4] of 2.

In the case of “LdcI-mGeosM (C-terminal fluorescent protein fusion of LdcI) (from UniProt P0A9H3 1-715) (enzyme)”, the stoichiometry N [5] is reported as 10.

B1: LdcI E445A/D447A double mutant (enzyme, E. coli)
chain: MNVIAILNHMGVYFKEEPIRELHRALERLNFQIVYPNDRDDLLKLIENNARLCGVIFDWDKYNLELCEEISKMNENLPLYAFANTYSTLDVSLNDLRLQISFFEYALGAAEDIANKIKQTTDEYINTILPPLTKALFKYVREGKYTFCTPGHMGGTAFQKSPVGSLFYDFFGPNTMKSDISISVSELGSLLDHSGPHKEAEQYIARVFNADRSYMVTNGTSTANKIVGMYSAPAGSTILIDRNCHKSLTHLMMMSDVTPIYFRPTRNAYGILGGIPQSEFQHATIAKRVKETPNATWPVHAVITNSTYDGLLYNTDFIKKTLDVKSIHFDSAWVPYTNFSPIYEGKCGMSGGRVEGKVIYETQSTHKLLAAFSQASMIHVKGDVNEETFNEAYMMHTTTSPHYGIVASTETAAAMMKGNAGKRLINGSIERAIKFRKEIKRLRTASAGWFFDVWQPDHIDTTECWPLRSDSTWHGFKNIDNEHMYLDPIKVTLLTPGMEKDGTMSDFGIPASIVAKYLDEHGIVVEKTGPYNLLFLFSIGIDKTKALSLLRALTDFKRAFDLNLRVKNMLPSLYREDPEFYENMRIQELAQNIHKLIVHHNLPDLMYRAFEVLPTMVMTPYAAFQKELHGMTEEVYLDEMVGRINANMILPYPPGVPLVMPGEMITEESRPVLEFLQMLCEIGAHYPGFETDIHGAYRQADGRYTVKVLKEESKK
B1: binds (negative stain EM).

B2: LdcI R97E (enzyme, E. coli)
chain: B1 chain with R97E, A445E, A447D
B2: binds (negative stain EM).

B3: LdcI H694N (enzyme, E. coli)
chain: B1 chain with A445E, A447D, H694N
B3: binds (negative stain EM).

B4: LdcI H694A (enzyme, E. coli)
chain: B1 chain with A445E, A447D, H694A
B4: binds (negative stain EM).
